Reference: patent publication US20180256699A1

Columns and labels:
[1] = molecular target: Recombinant soluble murine αMβ2 integrin (R&D Systems) (murine) (UniProt P05555); assay: ELISA, murine αMβ2 integrin coated, ACT serially diluted, with calcium, rabbit anti-ACT detection
[2] = molecular target: αMβ2 integrin on J774A.1 murine macrophage cells (murine) (UniProt P05555); assay: flow cytometry: biotinylated ACT on J774A.1 cells on ice, no scAb, detected with streptavidin-PE; background: cells only 274, non-biotinylated ACT 292
[3] = molecular target: Recombinant soluble murine αMβ2 integrin (R&D Systems) (murine) (UniProt P05555); assay: ELISA, murine αMβ2 integrin coated, domain serially diluted, with calcium, rabbit anti-ACT detection

| Substance | EC50 [1] [nM] | mean fluorescence (PE-A) [2] | EC50 [3] [nM] |
| --- | --- | --- | --- |
| Bordetella adenylate cyclase toxin (ACT), full-length, acylated (from UniProt J7QLC0 1-1706) | 20 | 4810 | – |
| RTX751*, RTX domain of ACT, residues 751-1706, acylated (from UniProt J7QLC0 751-1706) | – | – | 20 |
